The test system of this series is K562 CRISPRi cells. Put plainly: Constant region variant library pooled growth screen, K562. In kind it is cell-based, human. Summed up:
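K562 CRISPRi, duplicate transductions; puromycin 1 d 0.75 μg/mL then 1 d 0.85 μg/mL; >2000× coverage in spinner flasks; harvests at 4-8 d growth. Activity = phenotype ÷ phenotype with unmodified constant region.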

[1] abbreviates: sgRNA constant region variant, activity relative to unmodified constant region cr995, mean CRISPRi activity.
[2] abbreviates: sgRNA constant region variants, activity relative to the original, un-modified constant region cr995.

B1: cr518 (nucleic acid)
guide: GTTTAAGAGCTAAGCTGGAAACAGCATAGCAATTTTAAATGAGGCTAGTCCGTTATCAACTTGAAAAAGTGGCACCGAGTCGGTGCT
modifications: listed as DNA, chemistry not fully specified
Under setting [1], B1 displayed a Mean relative activity of 0.006889.

B2: cr272 (nucleic acid)
guide: GTTTAAGAGCTAAGCTGGAAACAGCATAGCCACTTTAAATAAGGCTAGTCCGTTATCAACTTGAAAAAGTGGCACCGAGTCGGTGCT
modifications: listed as DNA, chemistry not fully specified
B2 came in with a Mean relative activity under setting [1] of 0.00638.

B3: cr706 (nucleic acid)
guide: GTTTAAGAGCTAAGCTGGAAACAGCATAGCAAGGTTAAATAAGGCTAGTCCGTTATCAACTTGAAAAAGTGGCACGGAGTCCGTGCT
modifications: listed as DNA, chemistry not fully specified
Consider B3, for which the Mean relative activity under setting [1] came to 0.006595.

B4: cr472 (nucleic acid)
guide: GTTTAAGAGCTAAGCTGGAAACAGCATAGCAAGGTTAAATAAGGTTAATCCGTTATCAACTTGAAAAAGTGGCACCGAGTCGGTGCT
modifications: listed as DNA, chemistry not fully specified
B4 showed a Mean relative activity under setting [2] of 0.004917.

B5: cr615 (nucleic acid)
guide: GTTTAAGAGCTAAGCTGGAAACAGCATAGCAAGTTTAAATAAGGCTAGTCCGTTATCAACTTGAAAAAGTGCGTGCGAGTCGGAGGT
modifications: listed as DNA, chemistry not fully specified
The molecule B5 yielded a Mean relative activity under setting [1] of 0.006333.

B6: cr060 (nucleic acid)
guide: GTGCAAGAGCTAAGCTGGAAACAGCATAGCAAGTTTAAATAAGGCTAGTCCGTTATCAACTTGAAAAAGTGGCACCGAGTCGGTGCT
modifications: listed as DNA, chemistry not fully specified
As to B6, the Mean relative activity under setting [2] worked out at 0.005182.

B7: cr266 (nucleic acid)
guide: GTTTAAGAGCTAAGCTGGAAACAGCATGGCAAGGTTAAATAAGGCGAGTCCGTTATCAACTTGAAAAAGTGGCACCGAGTCGGTGCT
modifications: listed as DNA, chemistry not fully specified
On to B7, for which the Mean relative activity under setting [2] is given as 0.005552.

B8: cr174 (nucleic acid)
guide: GTTTAAGAGCTAAGCTGGAAACAGCATACCAAGTTTAAATAAGGCTAGGCCGTTATCAACTTGAAAAAGTGGCACCGATTCGGTGCT
modifications: listed as DNA, chemistry not fully specified
The molecule B8 showed a Mean relative activity under setting [1] of 0.006669.

B9: cr537 (nucleic acid)
guide: GTTTAAGAGCTAAGCTGGAAACAGCATAGCAAGCTTAAATTAGGCTAGTCCGTTATCAACTTGAAAAAGTGGCACCGAGTCGGTGCT
modifications: listed as DNA, chemistry not fully specified
Under setting [2], B9 had a Mean relative activity of 0.005276.

B10: cr902 (nucleic acid)
guide: GTTTAAGAGCTAAGCTGGAAACAGCATAGCAAGTTTAAATAAGGCTAGTCCGTTATCAACTTGAAAAAGTGACACCGAGTCGGTGTT
modifications: listed as DNA, chemistry not fully specified
Under setting [2], B10 displayed a Mean relative activity of 1.031.

B11: cr463 (nucleic acid)
guide: GTTTAAGAGCTAAGCTGGAAACAGCATAGCAAGTTTAAATAACGCTAGTCGGTTATCACCTTGAAAAAGGGGCACCTAGTAGGTGCT
modifications: listed as DNA, chemistry not fully specified
Turning to B11, the Mean relative activity under setting [1] is recorded as 0.006799.

B12: cr849 (nucleic acid)
guide: GTTTAAGAGCTAAGCTGGAAACAGCATAGCAACGTTAAATAAGGCTAGTCCGTTATCAACTTGAAAAAGTGGCACCGAGTCGGTGCT
modifications: listed as DNA, chemistry not fully specified
Take B12: under setting [2], the Mean relative activity stood at 0.004706.

B13: cr744 (nucleic acid)
guide: GTTTAAGAGCTAAGCTGGAAACAGCATAGCAAGATTAAATCAGGCTAGTCCGTTATCAACTTGTAAAAGTGGCACCGAGTCGGTGCT
modifications: listed as DNA, chemistry not fully specified
As for B13, the Mean relative activity under setting [1] worked out at 0.006349.

B14: cr400 (nucleic acid)
guide: GTTTAAGAGCTAAGCTGGAAACAGCATAGCAAGGTTAAATAAGGATATTCCGTTATCAACTTGAAAAAGTGGCACCGAGTCGGTGCT
modifications: listed as DNA, chemistry not fully specified
Consider B14, for which, under setting [2], the Mean relative activity is 0.00451.

B15: cr584 (nucleic acid)
guide: GTTTAAGAGCTAAGCTGGAAACAGCATAGCAAGTTTAAATATGGCTAGTCCTTTATCAACTTGAAAAAGTGGCACCGAGTCGGTGCT
modifications: listed as DNA, chemistry not fully specified
Turning to B15, the Mean relative activity under setting [1] worked out at 0.005912.

B16: cr297 (nucleic acid)
guide: GTTTAAGAGCTAAGCTGGAAACAGCATAGCAAGTTTAAATAAGGCTAGGCCGTTATCAACTTGAAAAAGTCGCACCGAGTCGGTGCT
modifications: listed as DNA, chemistry not fully specified
Take B16: the Mean relative activity under setting [2] was 0.004872.

B17: cr352 (nucleic acid)
guide: GTTTAAGAGCTAAGCTGGAAACAGCATAGCAAGTTTAAATAAGGCTAGTCCGTTATCACCTTGAAAAAGTGGCACCGAGTCGGTGCT
modifications: listed as DNA, chemistry not fully specified
Under setting [2], B17 came in with a Mean relative activity of 1.031.

B18: cr309 (nucleic acid)
guide: GTTTAAGAGCTAAGCTGGAAACAGCATAGCAAGGTTAAATAAGGCTAGGCCGTTATCAACTTGAAAAAGTGGCACCGAGTCGGTGCT
modifications: listed as DNA, chemistry not fully specified
Turning to B18, the Mean relative activity under setting [2] is 0.005045.

B19: cr094 (nucleic acid)
guide: GATTTAGAGCTAAGCTGGAAACAGCATAGCAAGTTTAAATAAGGCTAGTCCGTTATCAACTTGAAAAAGTGGCACCGAGTCGGTGCT
modifications: listed as DNA, chemistry not fully specified
Under setting [2], B19 yielded a Mean relative activity of 0.004414.

B20: cr057 (nucleic acid)
guide: GCTCAAGAGCTAAGCTGGAAACAGCATAGCAAGTTTAAATAAGGCTAGTCCGTTATCAACTTGAAAAAGTGGCACCGAGTCGGTGCT
modifications: listed as DNA, chemistry not fully specified
B20 showed a Mean relative activity under setting [2] of 0.005757.

B21: cr845 (nucleic acid)
guide: GTTTAAGAGCTAAGCTGGAAACAGCATAGCAAGGTTAAATAAAGCTAGTCTGTTATCAACTTGAAAAAGTGGCACCGAGTCGGTGCT
modifications: listed as DNA, chemistry not fully specified
Turning to B21, the Mean relative activity under setting [2] came out at 0.004644.

B22: cr281 (nucleic acid)
guide: GTTTAAGAGCTAAGCTGGAAACAGCATAGCAAGTTTAAATAAGGCTAGTCCGTTATCAACTTGAAAAAGTGGCTGGCAGTCCGAGCT
modifications: listed as DNA, chemistry not fully specified
For the molecule B22, under setting [1], the Mean relative activity is 0.006802.

B23: cr100 (nucleic acid)
guide: GTTTAAGAGCTAAGCTGGAAACAGCATAGCAAGTTTAAATGAGGCTAGCCCGTTATCAACTTGAAAAAGTGGCACCGAGTCGGTGCT
modifications: listed as DNA, chemistry not fully specified
Regarding B23, the Mean relative activity under setting [1] came to 0.005923.

B24: cr092 (nucleic acid)
guide: GTGTAGGAGCTAAGCTGGAAACAGCATAGCAAGTTTAAATAAGGCTAGTCCGTTATCAACTTGAAAAAGTGGCACCGAGTCGGTGCT
modifications: listed as DNA, chemistry not fully specified
B24 showed a Mean relative activity under setting [1] of 0.006875.

B25: cr967 (nucleic acid)
guide: GTTTAAGAGCTAAGCTGGAAACAGCATAGCAAGTTTAAATAACGCTAGTCGGTTATCAACTTGAAAAAGTGGAACCAAGTTGGTTCT
modifications: listed as DNA, chemistry not fully specified
Regarding B25, the Mean relative activity under setting [1] came to 0.006446.

B26: cr109 (nucleic acid)
guide: GTTTAAGAGCTAAGCTGGAAACAGCATAGCAAGTTTAAATAAGGCTAGTCCGTTATCAACAAGAAATTGTGGCACCGAGTCGGTGCT
modifications: listed as DNA, chemistry not fully specified
In turn, B26 showed a Mean relative activity under setting [2] of 1.031.

B27: cr753 (nucleic acid)
guide: GTTTAAGAGCTAAGCTGGAAACAGCATAGCAAGTTTAAATAACGCTAGTCGGTTATCATCTTGAAAAAGAGGAACCGAGTCGGTTCT
modifications: listed as DNA, chemistry not fully specified
The molecule B27 returned a Mean relative activity under setting [2] of 0.004302.

B28: cr857 (nucleic acid)
guide: GTTTAAGAGCTAAGCTGGAAACAGCATAGCAAGTTTAAATTAGGCTAGTCCGTTATCAACTTGAAAAAGTCGCACCGAGCCGGTGCT
modifications: listed as DNA, chemistry not fully specified
B28 yielded a Mean relative activity under setting [2] of 0.004274.

B29: cr203 (nucleic acid)
guide: GTTTAAGAGCTAAGCTGGAAACAGCATAGCAACTTTAAATAAGGCTAGTCCTTTATCAACTTGAAAAAGTGGCACCGAGTCGGTGCT
modifications: listed as DNA, chemistry not fully specified
Regarding B29, under setting [2], the Mean relative activity was determined as 0.004333.

The values are drawn from patent US20220259593A1, “CONTROL OF MAMMALIAN GENE DOSAGE USING CRISPR” (The Regents of the University of California, priority 2019, published 2022).
